Test results taken from patent US20080280833A1, “Therapeutic Peptides Derived from Urokinase Plasminogen Activator Receptor” (priority 2005, published 2008).

Biological target: purified human αvβ3 integrin (Chemicon) (human) (UniProt P06756)
Assay: cell-free pull-down: 125I-suPAR + αvβ3 + uPA + D2A (5 µg), immunoprecipitation with LM609, densitometry

Chain of purified human αvβ3 integrin (Chemicon) (human) (P06756 31-1048, form in doubt, chain 1 of 2): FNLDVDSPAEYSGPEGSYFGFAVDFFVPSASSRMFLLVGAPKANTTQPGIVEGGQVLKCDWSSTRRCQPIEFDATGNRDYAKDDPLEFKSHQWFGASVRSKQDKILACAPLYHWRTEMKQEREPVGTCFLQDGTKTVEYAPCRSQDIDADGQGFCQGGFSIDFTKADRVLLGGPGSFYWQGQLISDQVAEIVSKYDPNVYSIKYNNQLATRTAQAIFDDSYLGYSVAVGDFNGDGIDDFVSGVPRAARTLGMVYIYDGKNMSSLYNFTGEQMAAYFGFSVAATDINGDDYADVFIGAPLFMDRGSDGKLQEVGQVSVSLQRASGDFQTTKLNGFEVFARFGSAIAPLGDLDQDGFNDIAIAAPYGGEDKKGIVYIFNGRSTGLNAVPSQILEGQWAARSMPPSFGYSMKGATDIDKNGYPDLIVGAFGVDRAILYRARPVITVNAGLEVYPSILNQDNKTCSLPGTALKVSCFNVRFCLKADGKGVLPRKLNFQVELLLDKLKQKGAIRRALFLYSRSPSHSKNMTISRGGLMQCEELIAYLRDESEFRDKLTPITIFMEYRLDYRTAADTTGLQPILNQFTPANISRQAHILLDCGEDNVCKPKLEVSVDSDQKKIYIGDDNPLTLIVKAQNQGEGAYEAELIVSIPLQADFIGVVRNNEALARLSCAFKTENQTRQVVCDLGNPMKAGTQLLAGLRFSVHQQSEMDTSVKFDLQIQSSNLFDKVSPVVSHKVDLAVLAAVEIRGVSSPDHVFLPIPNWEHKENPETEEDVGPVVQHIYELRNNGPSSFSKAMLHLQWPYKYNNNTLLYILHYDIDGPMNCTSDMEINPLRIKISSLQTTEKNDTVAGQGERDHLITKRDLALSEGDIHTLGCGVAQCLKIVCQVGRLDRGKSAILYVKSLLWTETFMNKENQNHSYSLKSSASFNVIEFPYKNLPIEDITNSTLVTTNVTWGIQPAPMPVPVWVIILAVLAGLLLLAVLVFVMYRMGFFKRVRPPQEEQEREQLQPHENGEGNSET
Chain of purified human αvβ3 integrin (Chemicon) (human) (P05106 27-788, form in doubt, chain 2 of 2, further chain): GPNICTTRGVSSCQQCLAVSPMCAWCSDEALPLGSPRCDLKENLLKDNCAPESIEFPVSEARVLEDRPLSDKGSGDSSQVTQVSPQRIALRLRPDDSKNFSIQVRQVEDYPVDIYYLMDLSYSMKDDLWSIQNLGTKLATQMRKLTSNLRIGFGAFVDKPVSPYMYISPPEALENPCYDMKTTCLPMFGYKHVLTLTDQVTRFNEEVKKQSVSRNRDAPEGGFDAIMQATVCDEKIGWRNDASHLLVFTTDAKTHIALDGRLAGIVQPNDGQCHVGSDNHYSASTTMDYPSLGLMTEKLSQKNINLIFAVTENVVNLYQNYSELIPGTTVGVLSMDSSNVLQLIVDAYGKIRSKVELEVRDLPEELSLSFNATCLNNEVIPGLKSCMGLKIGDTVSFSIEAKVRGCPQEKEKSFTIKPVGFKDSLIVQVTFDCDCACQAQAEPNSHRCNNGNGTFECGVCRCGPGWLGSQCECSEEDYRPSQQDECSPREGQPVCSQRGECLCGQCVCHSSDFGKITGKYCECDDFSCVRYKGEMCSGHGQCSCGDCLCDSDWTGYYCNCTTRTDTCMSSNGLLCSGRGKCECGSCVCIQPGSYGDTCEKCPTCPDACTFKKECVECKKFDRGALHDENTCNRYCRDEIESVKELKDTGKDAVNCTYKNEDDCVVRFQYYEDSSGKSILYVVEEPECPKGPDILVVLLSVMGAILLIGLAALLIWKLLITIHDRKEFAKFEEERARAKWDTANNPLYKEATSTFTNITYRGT

## peptide D2A, synthetic peptide of domain 2 of human uPAR (aa130-142)
  percent reduction of coimmunoprecipitated suPAR compared to uPA alone: 50%
